Patent publication US20040248789A1 (TIANJIN FUSOGEN BIOTECH, published 2004)

B1: Fusonex (peptide)
peptide: Ac-SWETWEREIENYTKQIYKILEESQEQQDRNEKDLLE-NH2

Columns and labels:
gp41 N-peptide (35-70) [1] = assay: CD thermal melting of the peptide complex, 20-95° C.
gp41 N-peptide (35-70) [2] = assay: Superdex 75 gel filtration; free Fusonex elutes at 17.3 ml
HIV-1 gp160HXB = HIV-1 gp160HXB (HIV-1, UniProt P04578 512-856); assay: cell-based or functional assay
HIV-1 gp160HXB, sequence (P04578 512-856): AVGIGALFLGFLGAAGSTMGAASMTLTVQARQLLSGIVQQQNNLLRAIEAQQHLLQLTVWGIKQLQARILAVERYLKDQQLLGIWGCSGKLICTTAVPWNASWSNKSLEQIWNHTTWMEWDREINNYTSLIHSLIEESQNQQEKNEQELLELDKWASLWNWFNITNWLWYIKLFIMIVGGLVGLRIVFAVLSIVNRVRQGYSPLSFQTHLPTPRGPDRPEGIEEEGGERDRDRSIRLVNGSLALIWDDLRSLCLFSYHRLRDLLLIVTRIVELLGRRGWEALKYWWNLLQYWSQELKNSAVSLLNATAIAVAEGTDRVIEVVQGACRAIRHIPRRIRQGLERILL

gp41 N-peptide (35-70), sequence (P04578 546-581): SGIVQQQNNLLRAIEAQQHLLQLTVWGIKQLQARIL

Molecule	50% melting temperature of the complex (gp41 N-peptide (35-70) [1]) [° C.]	elution peak of the complex (gp41 N-peptide (35-70) [2]) [mL]	IC50, cell-cell fusion induced by HIV-1 gp160HXB (luciferase reporter) (HIV-1 gp160HXB) [nM]	IC50 relative to T-20, cell-cell fusion induced by HIV-1 gp160HXB (HIV-1 gp160HXB)
Fusonex (peptide)	70	13.2		
T-20 (peptide)	51			
B1			1.2	~0.05 fold of T-20
